# Laboratory results from article PMC4011913.
# Tests used:
# Test in all cases: SPR
# [1] = molecular target: humanized IgG1 anti-herpes simplex virus glycoprotein D antibody, wild type (human)
# [2] = molecular target: humanized anti-gD IgG1 variant T307Q/N434A (human)
# [3] = molecular target: humanized anti-gD IgG1 variant H310Q (human)
substance,measurement,setting,value
Soluble murine FcRn (neonatal Fc receptor) (from UniProt Q61559 22-297),Kd,[1],601 nM
same,koff,[1],0.0037 s⁻¹
same,kon,[1],6160 M⁻¹ s⁻¹
same,Kd,[2],108 nM
same,koff,[2],0.0021 s⁻¹
same,kon,[2],19100 M⁻¹ s⁻¹
same,Kd,[3],93000 nM
same,koff,[3],0.115 s⁻¹
same,kon,[3],1230 M⁻¹ s⁻¹
